In article PMC6315623:

Biological target: BS69 MYND domain (residues 427-602) fused to a B42 activation domain (UniProt Q15326)
Assay: yeast two-hybrid (β-galactosidase activity)
Settings: n = 3; parent: est. 1; read off a plot

BS69 MYND domain (residues 427-602) fused to a B42 activation domain, sequence (Q15326 427-602): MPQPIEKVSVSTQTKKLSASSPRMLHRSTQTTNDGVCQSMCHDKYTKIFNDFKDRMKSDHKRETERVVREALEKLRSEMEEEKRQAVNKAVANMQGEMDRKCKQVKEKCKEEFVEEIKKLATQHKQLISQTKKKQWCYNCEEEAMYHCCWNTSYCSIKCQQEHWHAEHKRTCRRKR

Substance	response (% of HAdV-A12 positive control)
HAdV-D9 E1A PXLXP motif fragment, wildtype, LexA DBD fusion P10C	1.5
HAdV-D9 E1A PXLXP motif fragment, wildtype, LexA DBD fusion T5V	1
HAdV-D9 E1A PXLXP motif fragment, wildtype, LexA DBD fusion I9V	1
HAdV-D9 E1A PXLXP motif fragment, wildtype, LexA DBD fusion T3P	59
